Test results from US20230038638A1, “COMPLEMENT FACTOR I-RELATED COMPOSITIONS AND METHODS” (published 2023).
Substitutions are numbered along the chain they refer to.

Tests used:
human C4b (human) [1] = target: T1, human C4b (human) (UniProt P0C0L5)
T1 sequence: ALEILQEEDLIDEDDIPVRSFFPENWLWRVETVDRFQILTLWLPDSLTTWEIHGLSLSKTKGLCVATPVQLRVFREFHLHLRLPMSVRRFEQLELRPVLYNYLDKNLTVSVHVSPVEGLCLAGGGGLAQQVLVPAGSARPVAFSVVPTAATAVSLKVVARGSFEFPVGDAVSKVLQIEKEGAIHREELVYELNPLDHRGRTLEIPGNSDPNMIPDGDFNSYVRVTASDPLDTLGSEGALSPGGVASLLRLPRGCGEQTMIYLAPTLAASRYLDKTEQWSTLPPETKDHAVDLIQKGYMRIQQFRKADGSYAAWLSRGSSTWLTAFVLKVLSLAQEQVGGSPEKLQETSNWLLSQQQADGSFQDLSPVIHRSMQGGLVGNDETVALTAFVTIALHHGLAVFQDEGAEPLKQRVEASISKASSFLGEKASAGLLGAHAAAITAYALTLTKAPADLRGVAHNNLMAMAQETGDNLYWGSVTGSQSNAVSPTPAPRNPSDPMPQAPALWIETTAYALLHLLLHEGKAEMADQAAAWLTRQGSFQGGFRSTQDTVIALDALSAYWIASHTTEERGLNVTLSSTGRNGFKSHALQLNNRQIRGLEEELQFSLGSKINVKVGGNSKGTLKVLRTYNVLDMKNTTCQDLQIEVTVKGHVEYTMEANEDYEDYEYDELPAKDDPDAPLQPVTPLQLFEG

[2] = target: soluble human C3b (human) (UniProt P01024)
[3] = target: soluble human C3b (human) (UniProt P01024); remark: listed apart in the source
human C4b (human) [4] = target: T2, human C4b (human) (UniProt P0C0L4)
T2 sequence: T1 sequence with T151A, G317D, L364P, S365C, I368L, H369D, S420N, A451V, R454L, A530S

C4b Screen Ref Fold (fold of CFI-HSA wild type) (human C4b (human) [1]) | iC3b Screen Ref Fold (fold of CFI-HSA wild type) [2] | iC3b EC50 [3] [nM] | C4c EC50 (human C4b (human) [4]) [nM] | C4b Screen Ref Fold (fold vs CFI-HSA wild type) (human C4b (human) [1]) | iC3b Screen Ref Fold (fold vs CFI-HSA wild type) [2] | C4c EC50 (nM) (human C4b (human) [4]) | Substance
5.1 | 0.58 | 4.7 | 13.5 | – | – | – | CFI-HSA variant Y408L; E457G; N531G; D425K (enzyme)
– | – | 144 | – | 0.01 | 0.12 | > 1000 | CFI-HSA variant K504L (enzyme)
4.15 | 1.02 | 6 | 90 | – | – | – | CFI-HSA variant E457G; P535G; D425K (enzyme)
– | – | 12.8 | – | 1.15 | 1.08 | 425 | CFI-HSA variant E416A (enzyme)
– | – | 53.6 | – | 3.84 | 0.54 | 229 | CFI-HSA variant K504H (enzyme)
– | – | 18.7 | – | 3.04 | 0.95 | 246 | CFI-HSA variant Q467K (enzyme)
– | – | 78.7 | – | 0.31 | 0.26 | 886 | CFI-HSA variant E457H (enzyme)
– | – | 10.9 | – | 2.13 | 1.36 | 359 | CFI-HSA variant N422K (enzyme)
5.49 | 1.51 | 5.2 | 32.6 | – | – | – | CFI-HSA variant E457G; N422K (enzyme)
0 | 0.27 | 50.9 | > 1000 | – | – | – | CFI-HSA variant Y408L; P535G (enzyme)
2.13 | 0.04 | 5.2 | 46.5 | – | – | – | CFI-HSA variant Y408L; E457G; P535G; D425K (enzyme)
– | – | 64.2 | – | 0.09 | 0.51 | 710 | CFI-HSA variant Y408N (enzyme)
– | – | 26.7 | – | 0.36 | 0.96 | 640 | CFI-HSA variant A502S (enzyme)
– | – | 19.2 | – | 1.88 | 0.61 | 225 | CFI-HSA variant Y408F (enzyme)
4.54 | 2.12 | 3.1 | – | – | – | 4.1 | CFI-HSA variant E457G; N531G; D425R; E416A (enzyme)
– | – | 31.9 | – | 5.25 | 0.04 | 53.1 | WT; GGSSGG (SEQ ID NO: 6); CR1(ccp15-17) (enzyme)
6.34 | 0.96 | 7.1 | 16.9 | – | – | – | CFI-HSA variant E457G; N531G; K534Q (enzyme)

More lines, now with the values behind:

Substance | C4b Screen Ref Fold (fold of CFI-HSA wild type) (human C4b (human) [1]) | iC3b Screen Ref Fold (fold of CFI-HSA wild type) [2] | iC3b EC50 [3] [nM] | C4c EC50 (human C4b (human) [4]) [nM] | C4b Screen Ref Fold (fold vs CFI-HSA wild type) (human C4b (human) [1]) | iC3b Screen Ref Fold (fold vs CFI-HSA wild type) [2] | C4c EC50 (nM) (human C4b (human) [4])
CFI-HSA variant G556S (enzyme) | 1.53 | 0.55 | 29.7 | 180 | – | – | –
CFI-HSA variant N531G; D425K (enzyme) | 4.7 | 1.19 | 5.2 | 51.9 | – | – | –
CFI-HSA variant E457G; D425K (enzyme) | 5.33 | 1.5 | 4.1 | 43.3 | – | – | –
CFI-HSA variant E457G; E461G (enzyme) | – | – | 22.2 | – | 4.31 | 1.28 | 222
CFI-HSA variant Y408H (enzyme) | – | – | 43.3 | – | 0.05 | 0.82 | > 1000
CFI-HSA variant E530D; F537K (enzyme) | – | – | 15.6 | – | 0.92 | 0.98 | 373
CFI-HSA variant N531G; P535A (enzyme) | – | – | 7.9 | – | 5.6 | 1.53 | 53.4
CFI-HSA variant P558A (enzyme) | 1.21 | 0.87 | 20.8 | 213 | – | – | –
CFI-HSA variant E457G; N531G; E461Q; R462K; F464Y; E416A (enzyme) | 4.38 | 2.21 | 5.2 | – | – | – | 7.5
CFI-HSA variant E457G; P535G (enzyme) | 1.93 | 0.68 | 13.8 | 158 | – | – | –
CFI-HSA variant E457A (enzyme) | – | – | 16.9 | – | 4.68 | 1.43 | 113
CFI-HSA variant Y408L; E457G; N531G; P535G; P558S (enzyme) | 4.34 | 1.39 | 9.6 | 27.9 | – | – | –
CFI-HSA variant N531G; E457G; E461Q (enzyme) | – | – | 5.6 | – | 6.42 | 0.95 | 29.3
CFI-HSA variant E457G; E416A (enzyme) | 4.63 | 1.41 | 7.1 | 94.9 | – | – | –
CFI-HSA variant F559L; Y563H (enzyme) | 1.03 | 0.71 | 39.6 | 130 | – | – | –
CFI-HSA variant N531G; E416A (enzyme) | 4.82 | 1.11 | 6.9 | – | – | – | 11.9
CFI-HSA variant N518Q (enzyme) | – | – | 20.2 | – | 1.11 | 1 | 510
CFI-HSA variant P535G; E416A (enzyme) | 0.13 | 0.53 | 41.6 | – | – | – | > 1000
CFI-HSA variant A502S; K504Q; F537K (enzyme) | – | – | 31.2 | – | 0.93 | 1.07 | 810
CFI-HSA variant K534Q (enzyme) | – | – | 21.7 | – | 1.76 | 1.53 | 595
